Measurements: patent US20220347267A1, “METHODS TO IMPROVE PATIENT RESPONSE TO IMMUNE CHECKPOINT INHIBITORS AND FUNCTIONAL TESTS TO PREDICT RESPONSE” (Biomarker Strategies, LLC, priority 2019, published 2022)

Experiments:
Type in all cases: cell-based, human
H460 cells [1] = assay: PD-L1 western blot after modulators (EM and MTAs); details: NSCLC H460, 30 minutes, 3 hours, 24 hours
Text: (§1) Cell lines were acquired from ATCC, Sigma, or DSMZ. Human non-small cell lung carcinoma (NSCLC) cell lines H292 (ATCC no. CRL-1848.), H1299 (ATCC no. CRL-5803), H520 (ATCC no. CRL-5811), CALU6 (ATCC no. HTB-56), H1975 (ATCC no. CRL-5908), H460 (ATCC no. HTB-177), H2126 (ATCC no. CCL-256), H1650 (ATCC no. CRL-5883), and H2087 (ATCC no. CRL-5922) were used for this experiment along with head and neck squamous cell carcinoma (HNSCC) cell lines BHY (DSMZ ACC 404), CAL27 (ATCC no. CRL-2095), KYSE410 (Sigma), and A253 (ATCC no. HTB-41), melanoma cell lines A375 (ATCC no. CRL-1619), COL0853 (Sigma), and MM127 (Sigma) pancreatic cancer cell lines BXPC3 (ATCC no. CRL-1687), colorectal cancer cell lines […], HCT116 (ATCC no. CCL-247EMT), and breast cancer cell lines BT549 (ATCC no. HTB-122), BT20 (ATCC no. HTB-19), and T47D (ATCC no. HTB-133). Cells were maintained in manufacturer-recommended conditions at 37° C. inside humidified 5% CO2 incubators. Sub-cultivation and harvesting for all cell lines were performed using Accutase (GIBCO Life Technologies; cat. no. A1110501) at 37° C. for 10 minutes. Cell viability was measured using trypan blue exclusion staining in conjunction with the Countess II Automated Cell Counter (Thermo Fischer Scientific; cat. no. AMQAX1000). Measurements were made in duplicate and the average number of viable cells was recorded prior to experiments.
(§2) T7039), and IL-10 (50 ng/ml; Sigma Aldrich cat. no. SRP3071) were administered to cell lines for various times including 30 minutes, 3 hour, and 24 hour time intervals prior to cell lysis and protein extraction.
(§3) To determine the effects of the aforementioned molecules on the modulation of PD-L1, we selected various NSCLC, HNSCC, breast cancer, melanoma, colorectal cancer, and pancreatic cancer cell lines as examples. Other diseases or cell lines could be used readily as could more complex samples such as cells isolated from xenografts and clinical samples. Cells were plated, for three different time points (30 minutes, 3 hours, and 24 hours), inside 6-well petri dishes with 2 mL of appropriate medium. Plates were incubated for 24 hours in 5% CO2 incubators at 37° C. After 24 hours, each 6-well plate was washed with PBS (Gibco Life Technologies, cat. no. 10010023) followed by fresh media being added along with each cell line's vehicle control or appropriate modulator for each specific time point, and were placed in CO2 incubators until their modulation time point was reached. Other conditions can be readily used, such as processing on automated systems such as SnapPath. At the end of each time point, while keeping plates on ice, cell lysis was conducted by aspirating culture medium from each plate, washing of each plate three times with 5 ml of cold PBS (Gibco Life Technologies, cat. no. 10010023) and culminated with the addition of cold 1× lysis buffer containing (Cell Signaling, cat. no. 9803 S) protease inhibitor cocktail (Cell Signaling, cat. no. 5871S), phosphatase inhibitor cocktail (Cell Signaling, cat. no. 5870S), and PMSF (Fisher Scientific, cat. no. ICN19538101). Plates were then placed on ice for ten minutes, swirling each plate intermittently. Aliquots of protein lysates were prepared and then stored at −80° C. until protein quantification and Western blot analysis was to be conducted. The protein concentration of each lysate was analyzed by using the Pierce 660 Protein Assay Reagent (Thermo Fisher Scientific, cat. no. 22660) and testing of each sample was conducted in duplicate. Two μg of protein was then loaded per lane into 10% Midi-PROTEAN TGX Precast Gels (Bio Rad, cat. no. 5671034) along with Kaleidoscope Prestained Protein Standard (BioRad, cat. no. 1610375) which ran at 220V for 45 minutes. Proteins were transferred to mini-PVDF membranes (BioRad, cat. no. 1704156) in 3 minutes using the Trans-Blot Turbo Transfer System (BioRad, cat. no. 1704150EDU).

BT549 cells = assay: PD-L1 western blot after modulators (EM and MTAs); details: Breast BT549, 30 minutes, 3 hours, 24 hours
Text: as §1, §2, §3

H292 cells = assay: PD-L1 western blot after modulators (EM and MTAs); details: NSCLC H292, 30 minutes, 3 hours, 24 hours
Text: as §1, §2, §3

H1650 cells = assay: PD-L1 western blot after modulators (EM and MTAs); details: NSCLC H1650, 30 minutes, 3 hours, 24 hours
Text: as §1, §2, §3

H460 cells [2] = assay: PD-L1 mRNA one step RT-qPCR, IFNγ treatment; details: 10 ng/mL IFNγ for 24h, normalized by GAPDH
Experimental: (§4) Additionally, the presence, abundance and ratio of different PD-L1 mRNA forms can be used to predict response. As way of example, PD-L1 mRNA were measured using primers amplifying within exon 3-4 (extracellular region of the transcribed protein that interacts with PD1). Other amplicons detecting the same or other forms can be used readily. For example, amplicons corresponding to the transmembrane and cytoplasmic tail to confirm full length plasma membrane bound protein is transcribed, or regions overlapping with either PD1 or anti-PD-L1 binding sites. Five cell lines (H460, H1299, H1650, H2126 and SKMES1) were treated with vehicle or 10 ng/mL IFNγ for 24h. More complex sample types, including cells isolated from solid tumors from preclinical and clinical cancers be used. Other time points, including those as early as 1h for IRF or 4h for PD-L1, can be readily used. RNA was isolated from the cells using an NEB kit (Cat #T2010) per the manufacturer's instructions. Isolated RNA was estimated using a NanoDrop […] and checked for its quality by checking the 260/280 ratio. RNA concentration was brought to 40 ng/uL in all the samples to take equal quantity for further steps of RT and real time PCR. One step RT-qPCR was performed using a Power SYBR Green RNA to Ct One step kit (Cat #4931198) as per the manufacturer's instructions. A 200 ng RNA template was taken for total 20 uL reaction per well in 96 well PCR microplate for Roche 480 Light cycler. The following primer pairs (Sigma) were used for PD-L1 and GAPDH and were used at a concentration in the reaction mixture of 400 nM:
(§5) A Roche 480 Light cycler was used for performing the one step real time PCR. Data was analyzed using 2^-ΔΔCt method normalized by GAPDH for relative levels. Alternative housekeeper genes may be readily used.

H1299 cells = assay: PD-L1 mRNA one step RT-qPCR, IFNγ treatment; details: 10 ng/mL IFNγ for 24h, 2^-ΔΔCt normalized by GAPDH
Experimental: as §4, §5

H2126 cells = assay: PD-L1 mRNA one step RT-qPCR, IFNγ treatment; details: 10 ng/mL IFNγ for 24h, normalized by GAPDH
Experimental: as §4, §5

B1: IFNγ: human IFNγ, modulator (10 ng/ml; Sigma Aldrich) (protein, UniProt P01579 24-161, looked up)
Interferon gamma: QDPYVKEAENLKKYFNAGHSDVADNGTLFLGILKNWKEESDRKIMQSQIVSFYFKLFKNFKDDQSIQKSVETIKEDMNVKFFNSNKKKRDDFEKLTNYSVTDLNVQRKAIHELIQVMAELSPAAKTGKRKRSQMLFRG
- PD-L1 Response (H460 cells [1]): Up
- PD-L1 Response (BT549 cells): Up
- PD-L1 Response (H292 cells): Up
- PD-L1 Response (H1650 cells): Up
- change of PD-L1 mRNA upon IFNγ exposure (H460 cells [2]): decrease
- relative increase of PD-L1 mRNA upon IFNγ exposure (H1299 cells): 1.7 fold
- change of PD-L1 mRNA upon IFNγ exposure (H2126 cells): decrease
